Source: patent US9114148

Biological target: cardiac protein phosphatase 1 (type 1 phosphatase activity of mouse hearts) (mouse)
Experiment: cell-based or functional assay

constitutively active, truncated inhibitor-1 (I-T35D; AA 1-65), mouse (from UniProt Q9ERT9 1-65)
type 1 phosphatase activity: 15 % decrease
